Experimental data as given in patent US20260232827A1 (Zymeworks, published 2026).

T1: Full length human NaPi2b (sodium-dependent phosphate transporter 2B, SLC34A2) (human, UniProt O95436 1-690)
T1 construct: also called huNaPi2b; CL_#13432
T1 sequence: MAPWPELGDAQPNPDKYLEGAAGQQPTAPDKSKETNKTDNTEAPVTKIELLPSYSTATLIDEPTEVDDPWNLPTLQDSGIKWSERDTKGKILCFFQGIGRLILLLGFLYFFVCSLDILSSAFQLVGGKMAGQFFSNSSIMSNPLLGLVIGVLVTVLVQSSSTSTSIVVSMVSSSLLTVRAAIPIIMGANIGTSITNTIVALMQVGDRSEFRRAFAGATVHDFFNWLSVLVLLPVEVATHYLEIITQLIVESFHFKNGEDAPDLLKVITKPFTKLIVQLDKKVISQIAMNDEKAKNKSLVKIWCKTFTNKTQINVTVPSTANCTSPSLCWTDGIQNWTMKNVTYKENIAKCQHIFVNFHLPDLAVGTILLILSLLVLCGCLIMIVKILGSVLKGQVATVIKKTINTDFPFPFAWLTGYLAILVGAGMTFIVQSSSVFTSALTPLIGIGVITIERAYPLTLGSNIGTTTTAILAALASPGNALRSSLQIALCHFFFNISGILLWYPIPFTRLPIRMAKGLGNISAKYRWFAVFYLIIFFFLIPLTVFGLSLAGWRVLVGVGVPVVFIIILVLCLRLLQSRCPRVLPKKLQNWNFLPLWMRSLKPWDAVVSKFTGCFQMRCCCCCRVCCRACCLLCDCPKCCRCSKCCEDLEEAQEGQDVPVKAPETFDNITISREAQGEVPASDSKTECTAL

T2: Construct 7 (human NaPi2b del 317-326) (human, UniProt O95436 1-690)
T2 construct: also called CL_#29921
T2 sequence: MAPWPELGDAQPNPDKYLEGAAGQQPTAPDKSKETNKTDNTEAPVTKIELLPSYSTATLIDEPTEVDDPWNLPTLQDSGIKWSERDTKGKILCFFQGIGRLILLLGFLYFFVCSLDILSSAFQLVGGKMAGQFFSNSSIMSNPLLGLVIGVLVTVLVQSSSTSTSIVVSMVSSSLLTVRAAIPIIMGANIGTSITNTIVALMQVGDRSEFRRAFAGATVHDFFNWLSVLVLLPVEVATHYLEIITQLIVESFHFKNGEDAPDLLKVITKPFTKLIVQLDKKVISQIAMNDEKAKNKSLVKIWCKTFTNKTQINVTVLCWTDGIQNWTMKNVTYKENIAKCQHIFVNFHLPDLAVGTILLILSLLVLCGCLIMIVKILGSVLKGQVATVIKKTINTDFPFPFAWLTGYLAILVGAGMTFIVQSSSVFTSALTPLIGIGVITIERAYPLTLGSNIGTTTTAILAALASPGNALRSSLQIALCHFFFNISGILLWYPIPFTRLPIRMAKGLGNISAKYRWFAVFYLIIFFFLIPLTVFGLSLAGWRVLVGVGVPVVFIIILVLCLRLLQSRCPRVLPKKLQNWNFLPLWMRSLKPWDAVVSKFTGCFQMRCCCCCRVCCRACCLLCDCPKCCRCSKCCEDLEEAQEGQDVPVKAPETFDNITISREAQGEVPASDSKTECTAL

T3: Construct 6 (human NaPi2b del 317-333) (human, UniProt O95436 1-690)
T3 construct: also called CL_#29919
T3 sequence: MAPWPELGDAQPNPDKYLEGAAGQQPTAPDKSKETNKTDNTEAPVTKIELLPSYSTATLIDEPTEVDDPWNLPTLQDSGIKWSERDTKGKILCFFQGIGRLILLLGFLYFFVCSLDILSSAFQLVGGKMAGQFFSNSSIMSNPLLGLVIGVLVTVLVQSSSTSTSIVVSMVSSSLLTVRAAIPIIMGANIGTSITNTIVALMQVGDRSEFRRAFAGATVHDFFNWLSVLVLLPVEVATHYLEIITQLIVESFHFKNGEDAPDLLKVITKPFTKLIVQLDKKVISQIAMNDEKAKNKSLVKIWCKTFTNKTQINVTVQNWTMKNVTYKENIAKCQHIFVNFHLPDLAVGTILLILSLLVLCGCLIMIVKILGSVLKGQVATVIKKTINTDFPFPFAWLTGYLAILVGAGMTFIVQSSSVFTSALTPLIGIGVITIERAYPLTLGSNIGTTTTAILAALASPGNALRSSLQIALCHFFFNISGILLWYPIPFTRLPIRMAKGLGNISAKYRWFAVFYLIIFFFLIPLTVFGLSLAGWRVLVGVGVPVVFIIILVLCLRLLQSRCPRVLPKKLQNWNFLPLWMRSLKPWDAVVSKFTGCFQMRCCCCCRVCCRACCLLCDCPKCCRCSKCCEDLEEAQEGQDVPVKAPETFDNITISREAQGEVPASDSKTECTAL

B1: lifastuzumab (v18993), reference anti-NaPi2b antibody (antibody, human IgG1, kappa)
heavy 1: GEVQLVESGGGLVQPGGSLRLSCAASGFSFSDFAMSWVRQAPGKGLEWVATIGRVAFHTYYPDSMKGRFTISRDNSKNTLYLQMNSLRAEDTAVYYCARHRGFDVGHFDFWGQGTLVTVSSASTKGPSVFPLAPSSKSTSGGTAALGCLVKDYFPEPVTVSWNSGALTSGVHTFPAVLQSSGLYSLSSVVTVPSSSLGTQTYICNVNHKPSNTKVDKKVEPKSCDKTHTCPPCPAPELLGGPSVFLFPPKPKDTLMISRTPEVTCVVVDVSHEDPEVKFNWYVDGVEVHNAKTKPREEQYNSTYRVVSVLTVLHQDWLNGKEYKCKVSNKALPAPIEKTISKAKGQPREPQVYVYPPSRDELTKNQVSLTCLVKGFYPSDIAVEWESNGQPENNYKTTPPVLDSDGSFALVSKLTVDKSRWQQGNVFSCSVMHEALHNHYTQKSLSLSPG
heavy 2: not shown
light: GDIQMTQSPSSLSASVGDRVTITCRSSETLVHSSGNTYLEWYQQKPGKAPKLLIYRVSNRFSGVPSRFSGSGSGTDFTLTISSLQPEDFATYYCFQGSFNPLTFGQGTKVEIKRTVAAPSVFIFPPSDEQLKSGTASVVCLLNNFYPREAKVQWKVDNALQSGNSQESVTEQDSKDSTYSLSSTLTLSKADYEKHKVYACEVTHQGLSSPVTKSFNRGEC
B2: palivizumab (v21995), anti-RSV antibody, negative control (antibody, human IgG1, kappa, V domains shown)
VH: QVTLRESGPALVKPTQTLTLTCTFSGFSLSTSGMSVGWIRQPPGKALEWLADIWWDDKKDYNPSLKSRLTISKDTSKNQVVLKVTNMDPADTATYYCARSMITNWYFDVWGAGTTVTVSS
VL: DIQMTQSPSTLSASVGDRVTITCKSQLSVGYMHWYQQKPGKAPKLLIYDTSKLASGVPSRFSGSGSGTEFTLTISSLQPDDFATYYCFQGSGYPFTFGGGTKLEIKR

Key:
Assay in all cases: flow cytometry, transfected HEK293-6e cells, antibody 2 nM;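 also: transfected cells exposed to test antibody 24 h at 4 °C to block internalization, at least 1,000 events per well, background is mean MFI of unstained cells lacking primary antibody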
[1] = biological target: T1, Full length human NaPi2b …
[2] = biological target: T4, Construct 4 (chimeric human NaPi2b, swap in NaPi2c in 341-358) (human)
T4 construct: also called CL_#13435

[3] = biological target: T2, Construct 7 (human NaPi2b del 317-326)
[4] = biological target: T5, Construct 2 (chimeric human NaPi2b, swap in NaPi2c in 280-301) (human)
T5 construct: also called CL_#29915

[5] = biological target: T6, Construct 1 (chimeric human NaPi2b, swap in NaPi2c in 239-259) (human)
T6 construct: also called CL_#29914

[6] = biological target: T7, Construct 5 (chimeric human NaPi2b, swap in NaPi2a in 304-348) (human)
T7 construct: also called CL_#13436

[7] = biological target: T8, Construct 3 (chimeric human NaPi2b, swap in NaPi2c in 304-321) (human)
T8 construct: also called CL_#29916

[8] = biological target: T3, Construct 6 (human NaPi2b del 317-333)

| Binder | Background-Subtracted AF647 Mean Fluorescence Intensity [1] | Background-Subtracted AF647 Mean Fluorescence Intensity [2] | Background-Subtracted AF647 Mean Fluorescence Intensity [3] | Background-Subtracted AF647 Mean Fluorescence Intensity [4] | Background-Subtracted AF647 Mean Fluorescence Intensity [5] | Background-Subtracted AF647 Mean Fluorescence Intensity [6] | Background-Subtracted AF647 Mean Fluorescence Intensity [7] | Background-Subtracted AF647 Mean Fluorescence Intensity [8] |
| --- | --- | --- | --- | --- | --- | --- | --- | --- |
| B1 | 1040 MFI | 726 MFI | 56 MFI | 473 MFI | 1230 MFI | 25 MFI | 609 MFI | -91 MFI |
| B2 | -22 MFI | 1 MFI | -34 MFI | -69 MFI | -30 MFI | -2 MFI | 19 MFI | 11 MFI |
